Literature values as cited in paper PMC6324986.

Molecular target: Bub1 (Homo sapiens) (UniProt O43683)
UniProt O43683, sequence (O43683 whole entry): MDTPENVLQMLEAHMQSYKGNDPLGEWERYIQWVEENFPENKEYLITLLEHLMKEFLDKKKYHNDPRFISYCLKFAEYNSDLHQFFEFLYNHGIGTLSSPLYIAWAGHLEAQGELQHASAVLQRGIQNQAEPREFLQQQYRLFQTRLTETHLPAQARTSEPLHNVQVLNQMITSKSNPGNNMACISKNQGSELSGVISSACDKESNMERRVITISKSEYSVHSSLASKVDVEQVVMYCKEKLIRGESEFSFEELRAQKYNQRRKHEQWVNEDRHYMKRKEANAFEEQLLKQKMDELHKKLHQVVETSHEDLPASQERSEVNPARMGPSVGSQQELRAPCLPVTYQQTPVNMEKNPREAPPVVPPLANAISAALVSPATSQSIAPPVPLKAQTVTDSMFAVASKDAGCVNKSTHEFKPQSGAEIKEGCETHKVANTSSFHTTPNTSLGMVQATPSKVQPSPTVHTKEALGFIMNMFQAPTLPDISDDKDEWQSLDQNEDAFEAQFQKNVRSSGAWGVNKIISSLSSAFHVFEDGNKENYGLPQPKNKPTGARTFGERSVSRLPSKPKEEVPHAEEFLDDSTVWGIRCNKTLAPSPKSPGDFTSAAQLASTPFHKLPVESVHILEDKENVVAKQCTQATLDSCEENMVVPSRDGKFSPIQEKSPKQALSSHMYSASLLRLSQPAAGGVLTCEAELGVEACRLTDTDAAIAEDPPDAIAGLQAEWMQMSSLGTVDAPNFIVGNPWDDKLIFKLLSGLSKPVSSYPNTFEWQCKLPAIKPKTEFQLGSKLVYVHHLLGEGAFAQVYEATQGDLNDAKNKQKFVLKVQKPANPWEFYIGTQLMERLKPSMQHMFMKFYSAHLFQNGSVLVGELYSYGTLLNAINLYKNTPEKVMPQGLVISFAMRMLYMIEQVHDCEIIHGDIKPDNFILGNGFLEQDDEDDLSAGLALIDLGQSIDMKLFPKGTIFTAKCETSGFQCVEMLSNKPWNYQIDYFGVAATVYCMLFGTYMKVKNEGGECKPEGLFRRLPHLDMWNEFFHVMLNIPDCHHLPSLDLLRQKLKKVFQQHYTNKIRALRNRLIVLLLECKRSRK

Kd: > 3 µM
Substance: Mad1 (from UniProt Q9Y6D9)
